Data taken from patent publication US20230192894A1.

Target: canine FcεRIα on the surface of canine mast cell line HMRC cells (canine)
Experiment: flow cytometry, FITC-labelled control on canine mast cell line HMRC

- median fluorescence intensity: 1720
Substance: mouse IgG2b isotype control labeled with FITC (antibody)
